Patent publication US20080044436A1, “Method for Screening and Compositions for Treating Cancers” (priority 2004, published 2008)

B1: TReP-132: Transcriptional Regulating Protein of 132 kDa, polypeptide comprising SEQ ID NO: 2; here expressed in cells from vectors (protein)
chain: MGDQQLYKTNHVAHGSENLFYQQPPLGVHSGLNHNYGNAVTGGGMDAPQASPISPHFPQDTRDGLGLPVGSKNLGQMDTSRQGGWGSHAGPGNHVQLRGNLANSNMMWGAPAQAEPTDGYQYTYSQASEIRTQKLTSGVLHKLDSFTQVFANQNLRIQVNNMAQVLHTQSAVMDGAPDSALRQLLSQKPMEPPAPAIPSRYQQVPQQPHPGFTGGLSKPALQVGQHPTQGHLYYDYQQPLAQVPVQGGQPLQAPQMLSQHMQQMQQHQYYPPQQQQQAGQQRISMQEIQTQPQQIRPSQPQPPPQQQQPQQLQLQQRQGSMQIPQYYQPQPMMQHLQEQQQQQMHLQPPSYHRDPHQYTPEQAHTVQLIPLGSMSQYYYQEPQQPYSHPLYQQSHLSQHQQREDSQLKTYSSDRQAQAMLSSHGDLGPPDTGMGDPASSDLTRVSSTLPHRPLLSPSGIHLNNMGPQHQQLSPSAMWPQMHLPDGRAQPGSPESSGQPKGAFGEQFDAKNKLTCSICLKEFKNLPALNGHMRSHGGMRASPNLKQEEGEKVLPPQPQPPLPPPPPPPPPPQLPPEAESLTPMVMPVSVPVKLLPPKPSSQGFTNSTVAAPSARDKPASSMSDDEMPVLEIPRKHQPSVPKAEEPLKTVQEKKKFRHRPEPLFIPPPPSYNPNPAASYSGATLYQSQLRSPRVLGDHLLLDPTHELPPYTPPPMLSPVRQGSGLFSNVLISGHGPGAHPQLPLTPLTPTPRVLLCRSNSIDGSNVTVTPGPGEQTVDVEPRINIGLRFQAEIPELQDISALAQDTHKATLVWKPWPELENHDLQQRVENLLNLCCSSALPGGGTNSEFALHSLFEAKGDVMVALEMLLLRKPVRLKCHPLANYHYAGSDKWTSLERKLFNKALATYSKDFIFVQKMVKSKTVAQCVEYYYTWKKIMRLGRKHRTRLAEIIDDCVTSEEEEELEEEEEEDPEEDRKSTKEEESEVPKSPEPPPVPVLAPTEGPPLQALGQPSGSFICEMPNCGAVFSSRQALNGHARIHGGTNQVTKARGAIPSGKQKPGGTQSGYCSVKSSPSHSTTSGETDPTTIFPCKECGKVFFKIKSRNAHMKTHRQQEEQQRQKAQKAAFAAEMAATIERTTGPVGAPGLLPLDQLSLIKPIKDVDILDDDVVQQLGGVMEEAEVVDTDLLLDDQDSVLLQGDAEL

Legend:
Format in all cases: cell-based, human
[1] = system: proximal Sp1 response element of the p21 and p27 promoters; assay: Chromatin immunoprecipitation with anti-TReP-132 antibody in T47-D cells; conditions: DNA from progesterone-treated vs untreated T47-D cells
Description: FIG. 14C: Chromatin was from T47-D cells treated or not with […] progesterone. IPs were carried out with anti-TReP-132 antibodies ([…]). Controls were DNA-free PCR products (column 1, H2O), PCR products of unprecipitated genomic DNA (columns 2 and 3, input), immunoprecipitations with no antibody (columns 4 and 5, no Ab) or with irrelevant antibody (columns 6 and 7, anti-HA). The extracted DNA was amplified using the same primers as in FIG. 13C.
HTO cells incubated in the presence of Dox or T47-D cells were grown to 70% confluence in petri dishes (150 mm diameter). For HTO cells, doxycycline was removed from half of the dishes 48 hours before lysis. T47-D cells were incubated with 30 nM progesterone or with ethanol containing 0.2% BSA-RPMI for 2.5 hours before lysis. Cell lysates were then sonicated on ice, 15 times for 15 seconds at 45 second intervals. A volume of lysate corresponding to 4×10^6 cells was immunoprecipitated by using 4 μg of antibody (indicated earlier) and an anti-HA antibody as negative control. The same volume was set aside for later purification of genomic DNA. […]

[2] = system: pRb; assay: Western blot of pRb phosphorylation in HTO cells; conditions: HTO-GFP/TReP-132 cells after Dox removal, almost undetectable at 72 hours
Description: FIG. 9B: Protein extracts (20 μg) of HTO cells expressing GFP or GFP and TReP-132 under the control of doxycycline, incubated or not with dox for the indicated times, were analyzed by western blot using anti-pRb antibodies directed against all pRb forms (hyperphopshorylated, phosphorylated and hypophosphorylated) or only against pRb phosphorylated at Ser 780, a target residue of cyclin D1/CDK4.
Cells were washed twice with cold PBS (Phosphate Buffered Saline), then harvested either in cold RIPA buffer (1×PBS, 1% Nonidet P-40, 0.5% sodium deoxycholate, 0.1% SDS, phosphatase and protease inhibitors) for co-immunoprecipitation analysis, or in lysis buffer (50 mM Tris, pH 8.0, 0.1% IGEPAL (Sigma)) for kinase assays. The lysates were incubated for 30 min on ice and cell debris was eliminated by centrifugation. The extracts were then aliquoted and stored at −80° C. For western blot analysis, RIPA or lysate buffer was used. For immunoprecipitations, whole cell lysates (1 mg) in RIPA buffer were preincubated with 0.1 μg of mouse or rabbit IgG and 20 μl of protein A-Sepharose beads (Amersham Biosciences, Uppsala, Sweden) for 30 min at 4° C. […] The blots were then visualized with ECL reagent and quantified with SCANWISE and Perfect-IMAGE V-5.3 software (CLARA VISION, France).

[3] = system: p21^CIP1/WAF1 gene; assay: RNase protection assay of CDKI transcription in HeLa cells, p21; conditions: HeLa Tet-off cells, doxycycline removed
Description: All radiolabelled probes specific for the p130, Rb, p107, p53, p57, p27, p21, p19, p18, p14/p15, L32, and GAPDH genes were labelled with [α-^32P]UTP-ribonucleotide (PerkinElmer Life Sciences, Woodbridge, Ontario, CA) in the conditions specified in the “hCC-2 Muti-Probe Template Set” kit (Pharmingen, Mississauga, Ontario, CA). Ribonuclease protection experiments were carried out with the Ribonuclease III Protection kit (Ambion, Austin, Tex.). Ten micrograms of HeLa cell RNA were hybridized with the radiolabelled probe mixture at 56° C. and then digested for 45 min at 30° C. in RNase A/RNase T1 solution diluted 1:1000 in digestion buffer. The samples were separated on a polyacrylamide-6% urea gel.

Molecule | TReP-132 binding to proximal Sp1 response element of p21 and p27 promoters [1] | phosphorylated pRb (ppRb) level [2] | p21 gene transcription [3]
CC(=O)[C@H]1CC[C@H]2[C@@H]3CCC4=CC(=O)CC[C@]4(C)[C@H]3CC[C@]12C [progesterone, reference compound] | much more pronounced |  | 
B1 |  | marked reduction | induction
